Biological target: T1, GAL4 DBD alone (pDBD) (yeast, UniProt P04386 1-147)
T1 construct: Control bait
Test: yeast two-hybrid, β-galactosidase activity

T1 sequence (P04386 1-147 limits assumed): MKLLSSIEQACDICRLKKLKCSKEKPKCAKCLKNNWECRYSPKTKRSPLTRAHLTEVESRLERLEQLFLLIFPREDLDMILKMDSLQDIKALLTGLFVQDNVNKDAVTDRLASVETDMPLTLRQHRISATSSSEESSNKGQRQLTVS

| Binder | binding result |
| --- | --- |
| GAL4 AD alone (pACT2) (other, yeast, UniProt P04386 768-881, looked up, domain: AD; Control prey) ANFNQSGNIADSSLSFTFTNSSNGPNLITTQTNSQALSQPIASSNVHDNFMNNEITASKIDDGNNSKPLSPGWTDQTAYNAFGITTGMFNTTTMDDVYNYLFDDEDTPPNPKKE | no binding |
| GAL4 AD-ZHX3 fusion pAD-ZHX3 (303-364) (other, not shown: large carriers, It is the HD1 region) LSSIPTYNAAMDSNSFLKNSFHKFPYPTKAELCYLTVVTKYPEEQLKIWFTAQRLKQGISWS | no binding |
| GAL4 AD-ZHX1 fusion pAD-ZHX1 (430-564) (other, human, UniProt Q9UKY1 430-564, looked up, not shown: large carriers, range 430-564) QVPAAQPTAETKPATAAVPTSQSVKHETALVNPDSFGIRAKKTKEQLAELKVSYLKNQFPHDSEIIRLMKITGLTKGEIKKWFSDTRYNQRNSKSNQCLHLNNDSSTTIIIDSSDETTESPTVGTAQPKQSWNPF | no binding |
| GAL4 AD-ZHX1 fusion pAD-ZHX1 (345-463) (other, human, UniProt Q9UKY1 345-463, looked up, not shown: large carriers, range 345-463) PEEVEEARRKQFNGTVHTVPQTITVIPTHISTGSNGLPSILQTCQIVGQPGLVLTQVAGTNTLPVTAPIALTVAGVPSQNNIQKSQVPAAQPTAETKPATAAVPTSQSVKHETALVNPD | no binding |

From patent US20070014790A1 (JAPAN SCIENCE AND TECHOLOGY AGENCY, published 2007)
